In publication PMC3810306:

Biological target: human CD47 IgSF domain (human)
Test: SPR

Row | Substance | Kd | dissociation half-life (t1/2)
1 | high-affinity SIRPα variant CV1 (consensus variant 1) monomer (designed binder) | 0.0111 nM | 
2 | wild-type human SIRPα allele 1 monomer (V-set Ig domain, domain 1) (domain or fragment) | 300 to 500 nM | 1.8 s
